{"source": "paper doi:10.1101/2024.06.04.597356", "binders": {"B1": {"name": "78-nt molecular beacon (structured_DNA)", "DNA": "AGGGTTCTTTGTGGTGTTTTTATCTGTGCTTCCCTATGCACCGCCGACGACAGTCGCTAACCTCTCGCTAAGAACCCT"}}, "target": "CspA (UniProt P0A9X9 1-70)", "sequence (P0A9X9 whole entry)": "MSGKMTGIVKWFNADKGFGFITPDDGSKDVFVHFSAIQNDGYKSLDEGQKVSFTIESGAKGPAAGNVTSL", "test": "molecular beacon unfolding"}
{"binder": "B1", "values": [{"measurement": "binding result", "value": "binds"}]}
